Results on four molecules are retold here after patent US20120190039A1 (MOUNT SINAI HOSPITAL, published 2012).

In assay [1] the target is B-RAF_L487R (human B-RAF kinase domain, residues 448-723) (human) (UniProt P15056). In words: analytical ultracentrifugation, equilibrium sedimentation, self-association.
The target of assay [2] is B-RAF_L487R/E558K (human B-RAF kinase domain, residues 448-723) (human) (UniProt P15056). Described as above.
Assay [3] deals with B-RAF_R481H (human B-RAF kinase domain, residues 448-723) (human) (UniProt P15056). The description is as above.
Assay [4] addresses MEK (overexpressed in S2 cells) (UniProt Q24324 1-396). In words: co-immunoprecipitation from S2 cells. How it is done: S2 cells were maintained in serum-free insect cell medium (Sigma) at 27° C. Cells were seeded at a density of 1.75×10⁶ cells/ml 24 h prior to transfection. Between 10 to 300 ng (or up to 900 ng for KSR_R732H) of DNA was transfected per construct using Effectene (Qiagen). dsRNAs were produced and used in RNAi experiments as described (Roy, F., Laberge, G., Douziech, M., Ferland-McCollough, D. & Therrien, M. KSR is a scaffold required for activation of the ERK/MAPK module. Genes Dev 16, 427-38 (2002)). Protein expression was induced by adding CuSO₄ (0.7 mM) 36 h before harvesting the cells. For FRB/FKBP-mediated dimer formation, rapamycin (Sigma) was added ([…]) to the medium 2 h prior to harvesting the cells. Lysates, immunoprecipitations, western blot procedures and antibodies were essentially as previously described (Douziech, M., Sahmi, M., Laberge, G. & Therrien, M. A, KSR/CNK complex mediated by HYP, a novel SAM domain-containing protein, regulates RAS-dependent RAF activation in Drosophila, Genes Dev, 20, 807-19 (2006)).

Sequence of MEK (overexpressed in S2 cells) (Q24324 whole entry): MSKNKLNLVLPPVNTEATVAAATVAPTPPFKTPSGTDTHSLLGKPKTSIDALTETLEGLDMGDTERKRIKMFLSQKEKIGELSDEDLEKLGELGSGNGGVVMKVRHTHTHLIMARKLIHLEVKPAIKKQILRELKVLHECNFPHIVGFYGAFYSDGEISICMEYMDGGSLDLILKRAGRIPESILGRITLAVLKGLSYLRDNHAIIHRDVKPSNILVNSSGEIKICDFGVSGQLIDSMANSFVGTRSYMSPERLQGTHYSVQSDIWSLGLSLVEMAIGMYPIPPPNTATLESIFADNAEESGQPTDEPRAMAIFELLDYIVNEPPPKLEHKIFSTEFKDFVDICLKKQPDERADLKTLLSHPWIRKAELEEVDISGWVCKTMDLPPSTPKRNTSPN

In the case of “B-RAF_L487R (human B-RAF kinase domain, residues 448-723) (from UniProt P15056 448-723) (enzyme)”, in assay [1], the average molecular weight (global self association fit) was 48600 Da and the ratio of the observed average MW to the theoretical MW of the monomer was 1.5.

For “B-RAF_L487R/E558K (human B-RAF kinase domain, residues 448-723) (from UniProt P15056 448-723) (enzyme)”, in assay [2], the average molecular weight (global self association fit) was determined as 55500 Da and the ratio of the observed average MW to the theoretical MW of the monomer came to 1.8. With “B-RAF_R481H (human B-RAF kinase domain, residues 448-723) (from UniProt P15056 448-723) (enzyme)”, in assay [3], the average molecular weight (global self association fit) stood at 34500 Da and the ratio of the observed average MW to the theoretical MW of the monomer came to 1.1.

B1: KSR-RAF chimera-A (KSR 1-665 fused to RAF 417-739, K455M) (other)
chain: MSSNNNAPASAPDTGSTNANDPISGSLSVDSNLVIIQDMIDLSANHLEGLRTQCAISSTLTQQEIRCLESKLVRYFSELLLAKMRLNERIPANGLVPHTTGNELRQWLRVVGLSQGTLTACLARLTTLEQSLRLSDEEIRQLLADSPSQREEEELRRLTRAMQNLRKCMESLESGTAASNNDPEQWHWDSWDRPTHIHRGSVGNIGLGNNSTASPRTHHRQHGVKGKNSALANSTNFKSGRQSPSATEELNSTQGSQLTLTLTPSPPNSPFTPSSGLSSSLNGTPQRSRGTPPPARKHQTLLSQSHVQVDGEQLARNRLPTDPSPDSHSSTSSDIFVDPNTNASSGGSSSNVLMVPCSPGVGHVGMGHAIKHRFTKALGFMATCTLCQKQVFHRWMKCTDCKYICHKSCAPHVPPSCGLPREYVDEFRHIKEQGGYASLPHVHGAAKGSPLVKKSTLGKPLHQQHGDSSSPSSSCTSSTPSSPALFQQRERELDQAGSSSSANLLPTPSLGKHQPSQFNFPNVTVTSSGGSGGVSLISNEPVPEQFPTAPATANGGLDSLVSSSNGHMSSLIGSQTSNASTAATLTGSLVNSTTTTSTCSFFPRKLSTAGVDKRTPFTSEYTDTHKSNDSDKTVSLSGSASTDSDRTPVRVDSTEDGDSGQWRQNSSEENWNILAEEILIGPRIGSGSFGTVYRAHWHGPVAVMTLNVKTPSPAQLQAFKNEVAMLKKTRHCNILLFMGCVSKPSLAIVTQWCEGSSLYKHVHVSETKFKLNTLIDIGRQVAQGMDYLHAKNIIHRDLKSNNIFLHEDLSVKIGDFGLATAKTRWSGEKQANQPTGSILWMAPEVIRMQELNPYSFQSDVYAFGIVMYELLAECLPYGHISNKDQILFMVGRGLLRPDMSQVRSDAPQALKRLAEDCIKYTPKDRPLFRPLLNMLENMLRTLPKIHRSASEPNLTQSQLQNDEFLYLPSPKTPVNFNNFQFFGSAGNI
As to B1, the binding result in assay [4] is “no binding”.
